# Target: HMW-MAA-specific idiotypic mAb 763.74
# Assay: peptide concentration giving 50% inhibition of biotinylated mAb 763.74 binding to Colo38 cells, cell ELISA
row,Binder,IC50 [µM]
1,IRSGDEVHYHVTAGPRW [peptide PHMW-MAA.D2.7 (HMW-MAA-derived peptide)],0.9
2,ARSNYVGYHVRWYFD [peptide PMK2-23H3 (anti-id mAb MK2-23 H3-derived peptide)],0.871

# Source: patent US20070190061A1
